Holding throughout (details): both partners purified
Test [1] has as its target T1, Pex1-WB2/Pex6-WB2 mutant hexamer (Pex1-E798Q-Strep/His-Pex6-E832Q) (S. cerevisiae, UniProt P24004 1-1043; P33760 1-1030, E798Q | E832Q).
T1 construct: Pex1, S. cerevisiae W303, Walker B D2 mutant; Pex6, S. cerevisiae W303, Walker B D2 mutant; also called Pex1-WB/Pex6-WB; ATPase-deficient Pex1/Pex6; source: E. coli BL21*, co-expressed, purified (Ni-NTA, Streptactin); copies: 3 + 3
The test can be described thus: HDX-MS; 3 uM Pex15 1-309 and 100 nM Pex1-WB2/Pex6-WB2 hexamer in D2O buffer (60 mM HEPES pD 7.6, 50 mM NaCl, 50 mM KCl, 10% glycerol, 10 mM MgCl2, 0.5 mM EDTA, 5 mM ATP); 15 s deuteration, with and without saturating Pex15.

Test [2] has as its target T2, Pex1-FLAG/His-Pex6 hexamer, wild type (S. cerevisiae, UniProt P24004 1-1043; P33760 1-1030).
T2 construct: Pex1, S. cerevisiae W303; Pex6, S. cerevisiae W303; Heterohexamer with alternating subunits; also called WT Pex1/Pex6; Pex1/Pex6; source: E. coli BL21*, co-expressed, purified (Ni-NTA, anti-FLAG, Superose6); copies: 3 + 3
Kind of test: inhibition of ATPase activity (ATP/NADH coupled enzyme assay); apparent KD from the concentration-dependent inhibition of the ATPase activity of 5 nM Pex1/Pex6 by titrated Pex15; 5 mM ATP, 2 uM BSA; n = 3 technical replicates.
T2 sequence (P24004 whole entry, chain 1 of 2): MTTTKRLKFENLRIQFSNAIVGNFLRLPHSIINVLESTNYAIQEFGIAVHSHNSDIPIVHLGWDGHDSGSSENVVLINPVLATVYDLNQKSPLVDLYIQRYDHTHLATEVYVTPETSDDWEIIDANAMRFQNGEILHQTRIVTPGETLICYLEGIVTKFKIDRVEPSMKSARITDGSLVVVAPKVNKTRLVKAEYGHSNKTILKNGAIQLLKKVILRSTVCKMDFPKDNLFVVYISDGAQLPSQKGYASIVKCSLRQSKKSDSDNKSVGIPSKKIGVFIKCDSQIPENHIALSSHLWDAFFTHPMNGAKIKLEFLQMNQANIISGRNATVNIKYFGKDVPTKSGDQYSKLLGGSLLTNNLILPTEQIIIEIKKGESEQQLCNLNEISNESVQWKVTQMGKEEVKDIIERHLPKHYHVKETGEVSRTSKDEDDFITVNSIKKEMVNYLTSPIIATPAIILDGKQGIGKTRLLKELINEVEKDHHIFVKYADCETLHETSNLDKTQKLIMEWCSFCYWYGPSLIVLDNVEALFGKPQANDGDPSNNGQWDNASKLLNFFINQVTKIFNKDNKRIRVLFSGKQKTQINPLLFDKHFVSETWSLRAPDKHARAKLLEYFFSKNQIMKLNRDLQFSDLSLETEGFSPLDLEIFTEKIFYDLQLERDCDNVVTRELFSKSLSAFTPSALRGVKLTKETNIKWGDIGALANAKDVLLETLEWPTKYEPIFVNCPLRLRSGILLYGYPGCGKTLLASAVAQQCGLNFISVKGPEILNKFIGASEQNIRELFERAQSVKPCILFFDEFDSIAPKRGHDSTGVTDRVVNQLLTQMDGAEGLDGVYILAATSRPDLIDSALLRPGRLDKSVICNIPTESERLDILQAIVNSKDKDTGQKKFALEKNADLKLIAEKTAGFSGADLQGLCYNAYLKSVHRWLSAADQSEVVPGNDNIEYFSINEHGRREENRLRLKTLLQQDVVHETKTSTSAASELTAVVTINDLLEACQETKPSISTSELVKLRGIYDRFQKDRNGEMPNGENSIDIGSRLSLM
T2 sequence (P33760 whole entry, chain 2 of 2): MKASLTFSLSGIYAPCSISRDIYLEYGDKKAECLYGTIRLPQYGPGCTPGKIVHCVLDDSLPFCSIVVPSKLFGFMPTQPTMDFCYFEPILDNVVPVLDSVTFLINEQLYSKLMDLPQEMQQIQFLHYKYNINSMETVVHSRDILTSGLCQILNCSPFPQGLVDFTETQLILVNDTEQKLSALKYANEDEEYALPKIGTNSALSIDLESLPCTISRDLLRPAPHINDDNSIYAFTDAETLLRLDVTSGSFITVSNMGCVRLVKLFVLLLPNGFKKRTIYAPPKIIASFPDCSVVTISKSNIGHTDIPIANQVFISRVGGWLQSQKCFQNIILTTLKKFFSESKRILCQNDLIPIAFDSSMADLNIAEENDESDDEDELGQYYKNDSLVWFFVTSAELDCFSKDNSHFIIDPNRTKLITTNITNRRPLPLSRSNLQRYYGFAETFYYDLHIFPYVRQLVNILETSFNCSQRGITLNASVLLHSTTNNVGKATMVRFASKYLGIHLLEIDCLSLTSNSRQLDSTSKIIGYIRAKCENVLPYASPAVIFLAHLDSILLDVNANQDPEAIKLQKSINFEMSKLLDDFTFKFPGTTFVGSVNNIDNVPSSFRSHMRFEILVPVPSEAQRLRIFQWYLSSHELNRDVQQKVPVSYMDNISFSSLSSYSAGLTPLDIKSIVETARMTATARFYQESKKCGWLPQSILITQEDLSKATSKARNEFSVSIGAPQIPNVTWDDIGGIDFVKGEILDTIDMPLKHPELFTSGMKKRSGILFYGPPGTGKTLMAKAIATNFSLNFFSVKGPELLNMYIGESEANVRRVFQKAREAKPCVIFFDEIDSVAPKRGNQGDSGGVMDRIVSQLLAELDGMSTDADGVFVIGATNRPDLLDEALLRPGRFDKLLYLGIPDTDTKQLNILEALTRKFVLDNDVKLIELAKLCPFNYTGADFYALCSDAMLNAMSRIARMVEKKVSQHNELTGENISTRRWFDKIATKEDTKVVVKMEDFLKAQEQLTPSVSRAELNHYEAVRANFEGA

In test [3] the target is T3, Pex1-FLAG/His-Pex6 (V245A, T246A) hexamer (S. cerevisiae, UniProt P24004 1-1043; P33760 1-1030, V245A | T246A).
T3 construct: Pex1, S. cerevisiae W303; also called Pex1/Pex6-VT:AA; Pex6 VT:AA; source: E. coli BL21*, co-expressed, purified (Ni-NTA, anti-FLAG, Superose6); copies: 3 + 3
T3 sequence (P24004 whole entry, chain 1 of 2): as the sequence (P24004 whole entry, chain 1 of 2) above
T3 sequence (P33760 whole entry V245A/T246A, chain 2 of 2): as the sequence (P33760 whole entry, chain 2 of 2) above, with V245A, T246A counted along it
Described as above.

In test [4] the target is T2, Pex1-FLAG/His-Pex6 hexamer, wild type. The test is described as above. This is another data set of the same source.
The target of test [5] is T4, fluorescein-labeled Pex5 (Pex5-FAM) (S. cerevisiae, UniProt P35056 1-612, fluorescein-conjugated peptide GGGK-FAM joined by sortase at the LPETGG site at the C-terminus).
T4 construct: Pex5, S. cerevisiae W303 coding region, followed by a sortase site (LPETGG) upstream of the C-terminal 6xHis tag; Likely derived from FLAG-Pex5-His, so an N-terminal FLAG tag may be present; After sortase the C-terminus should read LPET-GGGK(FAM); source: E. coli BL21*, purified, sortase-labelled, Ni-NTA flow-through, Superdex 200 increase; not shown: His6, C-terminal, cleaved
T4 sequence (looked up): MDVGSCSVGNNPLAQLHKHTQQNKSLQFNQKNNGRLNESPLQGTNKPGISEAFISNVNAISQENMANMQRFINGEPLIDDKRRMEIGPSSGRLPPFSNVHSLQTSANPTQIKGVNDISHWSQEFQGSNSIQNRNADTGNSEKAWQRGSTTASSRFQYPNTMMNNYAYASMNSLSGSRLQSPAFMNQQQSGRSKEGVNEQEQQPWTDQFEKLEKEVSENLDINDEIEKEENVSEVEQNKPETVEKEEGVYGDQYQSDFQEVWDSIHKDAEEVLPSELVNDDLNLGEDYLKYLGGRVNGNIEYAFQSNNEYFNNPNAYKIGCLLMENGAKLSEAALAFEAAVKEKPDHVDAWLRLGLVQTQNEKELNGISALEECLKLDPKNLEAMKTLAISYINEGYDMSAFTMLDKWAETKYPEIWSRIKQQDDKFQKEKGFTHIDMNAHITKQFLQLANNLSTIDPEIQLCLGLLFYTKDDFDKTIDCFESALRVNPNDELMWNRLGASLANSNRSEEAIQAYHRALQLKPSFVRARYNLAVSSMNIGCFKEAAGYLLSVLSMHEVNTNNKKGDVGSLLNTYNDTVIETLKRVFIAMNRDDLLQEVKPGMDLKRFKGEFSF
Kind of test: pull-down; 2 μM MBP-Pex15 1-327 on magnetic amylose resin with 350 nM Pex5-FAM, with or without 1 μM Pex1-WB2/Pex6-WB2 and 100 μM SKL peptide, 1 h, 4 °C, 60 mM HEPES pH 7.6, 150 mM NaCl, 150 mM KCl, 10% glycerol, 0.05% Tween-20, 10 mM MgCl2, 0.5 mM EDTA, 5 mM ATP; eluted with 20 mM maltose; Pex5 seen by its fluorescein.

Test [6] has as its target T5, Pex1-FLAG/His-Pex6 hexamer, wild type (S. cerevisiae, UniProt P24004 1-1043; P33760 1-1030).
T5 construct: Pex1, S. cerevisiae W303 coding region; Pex6, S. cerevisiae W303 coding region; also called Pex1/Pex6; wild-type Pex1/Pex6; source: E. coli BL21*, co-expressed, purified (Ni-NTA, anti-FLAG, Superose6); not shown: FLAG, C-terminal, kept; His6, N-terminal, kept; copies: 3 + 3
Kind of test: negative-stain EM reconstruction; 20 nM Pex1-FLAG/His-Pex6 mixed with 200 nM Pex15, 5 min on ice, 5 mM ATP; 3D reconstruction at 23.2 Å.
T5 sequence (P24004 whole entry, chain 1 of 2): as the sequence (P24004 whole entry, chain 1 of 2) above
T5 sequence (P33760 whole entry, chain 2 of 2): as the sequence (P33760 whole entry, chain 2 of 2) above

T1 sequence (P24004 whole entry E798Q, chain 1 of 2): as the sequence (P24004 whole entry, chain 1 of 2) above, with E798Q counted along it
T1 sequence (P33760 whole entry E832Q, chain 2 of 2): as the sequence (P33760 whole entry, chain 2 of 2) above, with E832Q counted along it

B1: Pex15 1-309 (cytosolic domain) (domain or fragment, S. cerevisiae, UniProt Q08215 1-309, looked up)
chain: MAASEIMNNLPMHSLDSSLRDLLNDDLFIESDESTKSVNDQRSEVFQECVNLFIKRDIKDCLEKMSEVGFIDITVFKSNPMILDLFVSACDIMPSFTKLGLTLQSEILNIFTLDTPQCIETRKIILGDLSKLLVINKFFRCCIKVIQFNLTDHTEQEEKTLELESIMSDFIFVYITKMRTTIDVVGLQELIEIFIFQVKVKLHHKKPSPNMYWALCKTLPKLSPTLKGLYLSKDVSIEDAILNSIDNKIQKDKAKSKGKQRGVKQKIHHFHEPMLHNSSEEQVKVEDAFNQRTSTDSRLQSTGTAPRKK
notes: likely here too; source: E. coli BL21*, purified (Ni-NTA, tag cleaved with PreScission protease, Superdex 200); not shown: His, C-terminal, cleaved
Take B1: the binding result in test [1] is reported as “binds”. In addition, the Kd in test [2] was found to be 580 ± 180 nM; in test [3], 1980 ± 580 nM; in test [4], 580 nM.

B2: MBP-Pex15 1-327-FLAG-His (domain or fragment, S. cerevisiae, UniProt Q08215 1-327, looked up)
chain: MAASEIMNNLPMHSLDSSLRDLLNDDLFIESDESTKSVNDQRSEVFQECVNLFIKRDIKDCLEKMSEVGFIDITVFKSNPMILDLFVSACDIMPSFTKLGLTLQSEILNIFTLDTPQCIETRKIILGDLSKLLVINKFFRCCIKVIQFNLTDHTEQEEKTLELESIMSDFIFVYITKMRTTIDVVGLQELIEIFIFQVKVKLHHKKPSPNMYWALCKTLPKLSPTLKGLYLSKDVSIEDAILNSIDNKIQKDKAKSKGKQRGVKQKIHHFHEPMLHNSSEEQVKVEDAFNQRTSTDSRLQSTGTAPRKKNNDITVLAGSFWAVLKHH
notes: Pex15, S. cerevisiae W303, cytosolic domain residues 1-327; not shown: MBP, N-terminal, kept; FLAG, C-terminal, kept; His, C-terminal, kept
For the molecule B2, the binding result in test [5] is reported as “binds”.

B3: Pex15 cytosolic domain (aa 1-327), as used for negative-stain EM (domain or fragment, S. cerevisiae, UniProt Q08215 1-327, looked up)
chain: MAASEIMNNLPMHSLDSSLRDLLNDDLFIESDESTKSVNDQRSEVFQECVNLFIKRDIKDCLEKMSEVGFIDITVFKSNPMILDLFVSACDIMPSFTKLGLTLQSEILNIFTLDTPQCIETRKIILGDLSKLLVINKFFRCCIKVIQFNLTDHTEQEEKTLELESIMSDFIFVYITKMRTTIDVVGLQELIEIFIFQVKVKLHHKKPSPNMYWALCKTLPKLSPTLKGLYLSKDVSIEDAILNSIDNKIQKDKAKSKGKQRGVKQKIHHFHEPMLHNSSEEQVKVEDAFNQRTSTDSRLQSTGTAPRKKNNDITVLAGSFWAVLKHH
notes: Pex15, S. cerevisiae W303, cytosolic domain residues 1-327; also called Pex15 cytosolic portion; source: E. coli BL21*, purified (Ni-NTA, Superdex 200); not shown: His, C-terminal, cleaved
Consider B3, for which, in test [6], the “stoichiometry N” value was 3 Pex15 per Pex1/Pex6 hexamer.

(Values after PMC5762779, “The peroxisomal AAA-ATPase Pex1/Pex6 unfolds substrates by processive threading” (Nature Communications, 2018).)
